This is an account of results in article PMC8534323.

The target of experiment [1] is T1, enolase (Eno1) (C. albicans (endogenous in strain ATCC 10231)), P30575.
T1 chain: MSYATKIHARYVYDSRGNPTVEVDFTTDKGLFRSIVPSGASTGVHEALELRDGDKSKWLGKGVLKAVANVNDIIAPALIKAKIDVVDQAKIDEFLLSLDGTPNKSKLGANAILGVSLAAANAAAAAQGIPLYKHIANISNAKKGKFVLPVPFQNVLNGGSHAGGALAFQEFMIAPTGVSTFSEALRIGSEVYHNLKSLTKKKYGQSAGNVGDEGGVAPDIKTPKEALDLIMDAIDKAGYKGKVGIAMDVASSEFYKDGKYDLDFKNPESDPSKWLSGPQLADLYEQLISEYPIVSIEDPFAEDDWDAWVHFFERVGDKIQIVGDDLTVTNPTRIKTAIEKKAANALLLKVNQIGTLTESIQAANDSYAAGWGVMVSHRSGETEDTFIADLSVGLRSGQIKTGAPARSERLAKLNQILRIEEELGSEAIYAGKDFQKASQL
The experiment can be described thus: SPR. The conditions noted are these: remark: other sources report otherwise.

Experiment [2] concerns the target T2, Phosphoglycerate mutase 1 (Gpm1), recombinant (C. albicans), P82612.
T2 chain: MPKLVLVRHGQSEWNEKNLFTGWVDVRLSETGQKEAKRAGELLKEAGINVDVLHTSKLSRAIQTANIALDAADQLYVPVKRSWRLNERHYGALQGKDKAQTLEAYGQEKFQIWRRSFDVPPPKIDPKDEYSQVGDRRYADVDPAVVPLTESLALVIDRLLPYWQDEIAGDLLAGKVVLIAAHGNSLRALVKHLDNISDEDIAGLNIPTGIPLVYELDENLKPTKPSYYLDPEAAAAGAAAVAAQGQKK
The experiment can be described thus: SPR. The conditions noted are these: remark: other sources report otherwise.

B1: lactotransferrin (LF), P02788 20-710 (natural protein)
chain: GRRRSVQWCAVSQPEATKCFQWQRNMRKVRGPPVSCIKRDSPIQCIQAIAENRADAVTLDGGFIYEAGLAPYKLRPVAAEVYGTERQPRTHYYAVAVVKKGGSFQLNELQGLKSCHTGLRRTAGWNVPIGTLRPFLNWTGPPEPIEAAVARFFSASCVPGADKGQFPNLCRLCAGTGENKCAFSSQEPYFSYSGAFKCLRDGAGDVAFIRESTVFEDLSDEAERDEYELLCPDNTRKPVDKFKDCHLARVPSHAVVARSVNGKEDAIWNLLRQAQEKFGKDKSPKFQLFGSPSGQKDLLFKDSAIGFSRVPPRIDSGLYLGSGYFTAIQNLRKSEEEVAARRARVVWCAVGEQELRKCNQWSGLSEGSVTCSSASTTEDCIALVLKGEADAMSLDGGYVYTAGKCGLVPVLAENYKSQQSSDPDPNCVDRPVEGYLAVAVVRRSDTSLTWNSVKGKKSCHTAVDRTAGWNIPMGLLFNQTGSCKFDEYFSQSCAPGSDPRSNLCALCIGDEQGENKCVPNSNERYYGYTGAFRCLAENAGDVAFVKDVTVLQNTDGNNNEAWAKDLKLADFALLCLDGKRKPVTEARSCHLAMAPNHAVVSRMDKVERLKQVLLHQQAKFGRNGSDCPDKFCLFQSETKNLLFNDNTECLARLHGKTTYEKYLGPQYVAGITNLKKCSTSPLLEACEFLRK
modifications: here or on the partner: NHS-fluorescein label in flow cytometry; sulfo-SBED crosslinker in the cross-linking experiment
Turning to B1, the Kd in experiment [1] came to 72.2 nM; in experiment [2], 21.4 nM.

B2: human neutrophil elastase (HNE), P08246 30-267 (enzyme)
chain: IVGGRRARPHAWPFMVSLQLRGGHFCGATLIAPNFVMSAAHCVANVNVRAVRVVLGAHNLSRREPTRQVFAVQRIFENGYDPVNLLNDIVILQLNGSATINANVQVAQLPAQGRRLGNGVQCLAMGWGLLGRNRGIASVLQELNVTVVTSLCRRSNVCTLVRGRQAGVCFGDSGSPLVCNGLIHGIASFVRGGCASGLYPDAFAPVAQFVNWIDSIIQRSEDNPCPHPRDPDPASRTH
modifications: here or on the partner: sulfo-SBED crosslinker in the cross-linking experiment; in flow cytometry preincubated or not with 10 µM N-(Methoxysuccinyl)-Ala-Ala-Pro-Val-chloromethyl ketone
In turn, B2 yielded a Kd in experiment [1] of 36.1 nM.

In general, Kd refers to the free concentration of one partner at which half of the binding sites on the other are occupied at equilibrium, for simple one-to-one binding.
